We go through 10 proteins from the supplement of paper PMC10567573.

The data set is described as follows: protein stability index of a GFP-peptide fusion (GPS, HEK-293T) (PSI 1-6); higher = more stable. To be noted: c terminus: native.
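Note: lentivirally expressed fusion library, cells FACS-sorted into six equal-sized GFP/DsRed ratio bins, PSI computed from sequencing read fractions per bin weighted by bin number.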

B1: PSMB5 addN (peptide)
chain: DGWIRVSSDNVADLHEKYSGSTPN
Take B1: the protein stability index (parent: NP_002788.1) amounted to 4.04.

B2: TRPA1 addN (peptide)
chain: EQRNSRWNTVLRAVKAKTHHLEPN
Regarding B2, the protein stability index (parent: NP_015628.1) is 4.57.

B3: SNF8 addN (peptide)
chain: LPALFTDLYSQEITAEEAREALPN
For B3, the protein stability index (parent: NP_009172.2) was determined as 4.75.

B4: POLD2 addV (peptide)
chain: CQPISFSGFGAEDDDLGGLGLGPV
B4: the protein stability index (parent: NP_006221.1) is 3.

B5: POLD2 addN (peptide)
chain: CQPISFSGFGAEDDDLGGLGLGPN
Consider B5, for which the protein stability index (parent: NP_006221.1) amounted to 1.99.

B6: BEX2 addV (peptide)
chain: HSLRAVSTDPPHHDHHDEFCLMPV
Consider B6, for which the protein stability index (parent: NP_116010.1) came out at 3.68.

B7: TRPA1 addV (peptide)
chain: EQRNSRWNTVLRAVKAKTHHLEPV
For the protein B7, the protein stability index (parent: NP_015628.1) worked out at 4.23.

B8: SNF8 addV (peptide)
chain: LPALFTDLYSQEITAEEAREALPV
B8: the protein stability index (parent: NP_009172.2) was found to be 3.9.

B9: BEX2 addN (peptide)
chain: HSLRAVSTDPPHHDHHDEFCLMPN
For B9, for the setting “parent: NP_116010.1”, the protein stability index came out at 4.18.

B10: PSMB5 addV (peptide)
chain: DGWIRVSSDNVADLHEKYSGSTPV
B10: the protein stability index (parent: NP_002788.1) was 4.27.
